The target of experiment [1] is T1, FcγRIa extracellular domain with C-terminal His tag (human, UniProt P12314 16-292).
T1 construct: extracellular domain; Soluble receptor expressed in FreeStyle293 cells and used as analyte in Biacore; also called FcgRI; 1a; not shown: His tag at the C terminus
Put plainly: SPR Biacore, relative binding amount. A general note: Surface plasmon resonance follows binding to a sensor surface in real time, without labels.

Experiment [2] concerns the target T2, FcγRIIb extracellular domain with C-terminal His tag (human, UniProt P31994 43-217).
T2 construct: extracellular domain; Soluble receptor expressed in FreeStyle293 cells and used as analyte in Biacore; also called FcgRIIb; 2b; not shown: His tag at the C terminus
T2 sequence (looked up): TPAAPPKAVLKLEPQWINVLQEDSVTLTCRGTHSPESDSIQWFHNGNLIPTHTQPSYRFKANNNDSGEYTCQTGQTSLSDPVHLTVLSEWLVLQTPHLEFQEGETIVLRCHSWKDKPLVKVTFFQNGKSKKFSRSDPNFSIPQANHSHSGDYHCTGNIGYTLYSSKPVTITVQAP
Put plainly: SPR Biacore, relative binding amount.

Experiment [3] addresses T3, FcγRIIa R (FcγRIIa, allotype R: Arg at position 131) extracellular domain with C-terminal His tag (human, UniProt P12318 34-217).
T3 construct: extracellular domain; also called FcgRIIa R; 2aR; not shown: His tag at the C terminus
T3 sequence (looked up): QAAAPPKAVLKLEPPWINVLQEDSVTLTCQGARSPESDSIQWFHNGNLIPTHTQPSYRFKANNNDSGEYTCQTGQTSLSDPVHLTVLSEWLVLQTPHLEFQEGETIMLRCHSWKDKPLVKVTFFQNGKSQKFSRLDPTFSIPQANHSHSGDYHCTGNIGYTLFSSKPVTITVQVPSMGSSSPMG
Put plainly: ratio He/Con_2aR : He/Con_2b (FcgRIIa R over FcgRIIb), SPR Biacore. As for the experimental part: The heterodimerized antibodies He Abs in which one of the H chains was introduced with an alteration were assayed for their binding activities to each activating FcγR and inhibitory FcγR according to the method described in Example 4. […] The activating FcγRs in FIGS. 26, 27, 28, and 29 are FcγRIa, FcγRIIa (R), FcγRIIa (H), and FcγRIIIa, respectively.
Analysis of interaction between objective antibody and the FcγR was carried out using Biacore T100 (GE Healthcare). HBS-EP+ (GE Healthcare) was used as the running buffer, and the measurement temperature was set to 25° C. Chips produced by immobilizing the antigen peptide by the amine coupling method to a Series S Sencor Chip CM5 (GE Healthcare), or alternatively, chips produced by allowing preliminarily biotinylated antigen peptides to interact with and immobilize onto a Series S Sensor Chip SA (certified) (GE Healthcare) were used. Antibodies of interest were captured onto an antigen peptide-immobilized chip, and allowed to interact to each FcγR diluted with running buffer. To regenerate and repeatedly use the chip, the antibodies captured on the chip were washed off by reacting 10 mM glycine-HCl, pH 1.5.

Experiment [4] deals with T3, FcγRIIa R (FcγRIIa, allotype R: Arg at …). Put plainly: SPR Biacore, antibody captured, FcgR analyte; vs HeCon Ab GpH7-A5/GpH7-B3/GpL16-k0 = 100.

T1 sequence (P12314 16-292): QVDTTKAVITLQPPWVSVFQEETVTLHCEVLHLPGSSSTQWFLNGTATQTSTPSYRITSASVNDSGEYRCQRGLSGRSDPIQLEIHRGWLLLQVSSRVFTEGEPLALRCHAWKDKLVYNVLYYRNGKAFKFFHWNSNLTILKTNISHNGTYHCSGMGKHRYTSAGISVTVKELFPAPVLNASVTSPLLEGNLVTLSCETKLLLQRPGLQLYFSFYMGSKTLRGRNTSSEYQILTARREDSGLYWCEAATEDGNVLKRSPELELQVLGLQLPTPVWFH

B1: heterodimerized antibody GpH7-A5/GpH7-B3 variant I336_02A/GpL16-k0 (antibody, human IgG1, kappa)
heavy 1: not shown
heavy 2: not shown
light: DIVMTQSPLSLPVTPGEPASISCQASESLVHSNRNTYLHWYLQKPGQSPQLLIYKVSNRFSGVPDRFSGSGSGTDFTLKISRVEAEDVGVYYCSQNTHVPPTFGQGTKVEIERTVAAPSVFIFPPSDEQLKSGTASVVCLLNNFYPREAKVQWKVDNALQSGNSQESVTEQDSKDSTYSLSSTLTLSKADYEKHKVYACEVTHQGLSSPVTKSFNRGEC
notes: Substitution in only one H chain (GpH7-B3 side); also called He Ab
With B1, the He/Con_1a in experiment [1] is 106 % of GpH7-A5/GpH7-B3/GpL16-k0 (=100). Further, in experiment [2], the He/Con_2b was 84.9 % of GpH7-A5/GpH7-B3/GpL16-k0 (=100).

B2: GpH7-A5/GpH7-B3 variant G237_12R/GpL16-k0 (antibody, human IgG1, kappa)
heavy 1: not shown
heavy 2: not shown
light: DIVMTQSPLSLPVTPGEPASISCQASESLVHSNRNTYLHWYLQKPGQSPQLLIYKVSNRFSGVPDRFSGSGSGTDFTLKISRVEAEDVGVYYCSQNTHVPPTFGQGTKVEIERTVAAPSVFIFPPSDEQLKSGTASVVCLLNNFYPREAKVQWKVDNALQSGNSQESVTEQDSKDSTYSLSSTLTLSKADYEKHKVYACEVTHQGLSSPVTKSFNRGEC
notes: He Ab: alteration in the GpH7-B3 H chain only; also called He Ab
As for B2, in experiment [3], the “He_2aR/2b (IIaR/IIb)” value was determined as 2.47. The molecule further gave a He/Con_2aR in experiment [4] of 24.2 control = 100.

B3: heterodimerized antibody GpH7-A5/GpH7-B3 variant T335_12R/GpL16-k0 (antibody, human IgG1, kappa)
heavy 1: not shown
heavy 2: not shown
light: DIVMTQSPLSLPVTPGEPASISCQASESLVHSNRNTYLHWYLQKPGQSPQLLIYKVSNRFSGVPDRFSGSGSGTDFTLKISRVEAEDVGVYYCSQNTHVPPTFGQGTKVEIERTVAAPSVFIFPPSDEQLKSGTASVVCLLNNFYPREAKVQWKVDNALQSGNSQESVTEQDSKDSTYSLSSTLTLSKADYEKHKVYACEVTHQGLSSPVTKSFNRGEC
notes: as for B1
Turning to B3, the He/Con_1a in experiment [1] is 113 % of GpH7-A5/GpH7-B3/GpL16-k0 (=100). The He/Con_2b in experiment [2] was 91.9 % of GpH7-A5/GpH7-B3/GpL16-k0 (=100).

B4: heterodimerized antibody GpH7-A5/GpH7-B3 variant T335_05P/GpL16-k0 (antibody, human IgG1, kappa)
heavy 1: not shown
heavy 2: not shown
light: DIVMTQSPLSLPVTPGEPASISCQASESLVHSNRNTYLHWYLQKPGQSPQLLIYKVSNRFSGVPDRFSGSGSGTDFTLKISRVEAEDVGVYYCSQNTHVPPTFGQGTKVEIERTVAAPSVFIFPPSDEQLKSGTASVVCLLNNFYPREAKVQWKVDNALQSGNSQESVTEQDSKDSTYSLSSTLTLSKADYEKHKVYACEVTHQGLSSPVTKSFNRGEC
notes: as for B1
Regarding B4, in experiment [1], the He/Con_1a is 106 % of GpH7-A5/GpH7-B3/GpL16-k0 (=100). The He/Con_2b in experiment [2] was 99.9 % of GpH7-A5/GpH7-B3/GpL16-k0 (=100).

B5: GpH7-A5/GpH7-B3 variant G237_11K/GpL16-k0 (antibody, human IgG1, kappa)
heavy 1: not shown
heavy 2: not shown
light: DIVMTQSPLSLPVTPGEPASISCQASESLVHSNRNTYLHWYLQKPGQSPQLLIYKVSNRFSGVPDRFSGSGSGTDFTLKISRVEAEDVGVYYCSQNTHVPPTFGQGTKVEIERTVAAPSVFIFPPSDEQLKSGTASVVCLLNNFYPREAKVQWKVDNALQSGNSQESVTEQDSKDSTYSLSSTLTLSKADYEKHKVYACEVTHQGLSSPVTKSFNRGEC
notes: as for B2
Regarding B5, the “He_2aR/2b (IIaR/IIb)” value in experiment [3] amounted to 1.9. The molecule further registered a He/Con_2aR in experiment [4] of 17.1 control = 100.

B6: heterodimerized antibody GpH7-A5/GpH7-B3 variant T335_11K/GpL16-k0 (antibody, human IgG1, kappa)
heavy 1: not shown
heavy 2: not shown
light: DIVMTQSPLSLPVTPGEPASISCQASESLVHSNRNTYLHWYLQKPGQSPQLLIYKVSNRFSGVPDRFSGSGSGTDFTLKISRVEAEDVGVYYCSQNTHVPPTFGQGTKVEIERTVAAPSVFIFPPSDEQLKSGTASVVCLLNNFYPREAKVQWKVDNALQSGNSQESVTEQDSKDSTYSLSSTLTLSKADYEKHKVYACEVTHQGLSSPVTKSFNRGEC
notes: as for B1
B6: in experiment [1], the He/Con_1a was 111 % of GpH7-A5/GpH7-B3/GpL16-k0 (=100). The He/Con_2b in experiment [2] was 91 % of GpH7-A5/GpH7-B3/GpL16-k0 (=100).

B7: heterodimerized antibody GpH7-A5/GpH7-B3 variant K334_09D/GpL16-k0 (antibody, human IgG1, kappa)
heavy 1: not shown
heavy 2: not shown
light: DIVMTQSPLSLPVTPGEPASISCQASESLVHSNRNTYLHWYLQKPGQSPQLLIYKVSNRFSGVPDRFSGSGSGTDFTLKISRVEAEDVGVYYCSQNTHVPPTFGQGTKVEIERTVAAPSVFIFPPSDEQLKSGTASVVCLLNNFYPREAKVQWKVDNALQSGNSQESVTEQDSKDSTYSLSSTLTLSKADYEKHKVYACEVTHQGLSSPVTKSFNRGEC
notes: as for B1
B7: in experiment [1], the He/Con_1a is 106 % of GpH7-A5/GpH7-B3/GpL16-k0 (=100). In addition, in experiment [2], the He/Con_2b is 94.8 % of GpH7-A5/GpH7-B3/GpL16-k0 (=100).

B8: heterodimerized antibody GpH7-A5/GpH7-B3 variant T335_02A/GpL16-k0 (antibody, human IgG1, kappa)
heavy 1: not shown
heavy 2: not shown
light: DIVMTQSPLSLPVTPGEPASISCQASESLVHSNRNTYLHWYLQKPGQSPQLLIYKVSNRFSGVPDRFSGSGSGTDFTLKISRVEAEDVGVYYCSQNTHVPPTFGQGTKVEIERTVAAPSVFIFPPSDEQLKSGTASVVCLLNNFYPREAKVQWKVDNALQSGNSQESVTEQDSKDSTYSLSSTLTLSKADYEKHKVYACEVTHQGLSSPVTKSFNRGEC
notes: as for B1
Consider B8, for which, in experiment [1], the He/Con_1a is 103 % of GpH7-A5/GpH7-B3/GpL16-k0 (=100). Further, the He/Con_2b in experiment [2] was 94 % of GpH7-A5/GpH7-B3/GpL16-k0 (=100).

The values are drawn from patent US20180155451A1 (published 2018).
